Our source for the fold decrease in E1-E2 Ub thioester transfer assay (Figure 2E) values is paper PMC5319395.

For the assay, the target named is T1, S. pombe Uba1 (S. pombe) (UniProt O94609).
T1 sequence: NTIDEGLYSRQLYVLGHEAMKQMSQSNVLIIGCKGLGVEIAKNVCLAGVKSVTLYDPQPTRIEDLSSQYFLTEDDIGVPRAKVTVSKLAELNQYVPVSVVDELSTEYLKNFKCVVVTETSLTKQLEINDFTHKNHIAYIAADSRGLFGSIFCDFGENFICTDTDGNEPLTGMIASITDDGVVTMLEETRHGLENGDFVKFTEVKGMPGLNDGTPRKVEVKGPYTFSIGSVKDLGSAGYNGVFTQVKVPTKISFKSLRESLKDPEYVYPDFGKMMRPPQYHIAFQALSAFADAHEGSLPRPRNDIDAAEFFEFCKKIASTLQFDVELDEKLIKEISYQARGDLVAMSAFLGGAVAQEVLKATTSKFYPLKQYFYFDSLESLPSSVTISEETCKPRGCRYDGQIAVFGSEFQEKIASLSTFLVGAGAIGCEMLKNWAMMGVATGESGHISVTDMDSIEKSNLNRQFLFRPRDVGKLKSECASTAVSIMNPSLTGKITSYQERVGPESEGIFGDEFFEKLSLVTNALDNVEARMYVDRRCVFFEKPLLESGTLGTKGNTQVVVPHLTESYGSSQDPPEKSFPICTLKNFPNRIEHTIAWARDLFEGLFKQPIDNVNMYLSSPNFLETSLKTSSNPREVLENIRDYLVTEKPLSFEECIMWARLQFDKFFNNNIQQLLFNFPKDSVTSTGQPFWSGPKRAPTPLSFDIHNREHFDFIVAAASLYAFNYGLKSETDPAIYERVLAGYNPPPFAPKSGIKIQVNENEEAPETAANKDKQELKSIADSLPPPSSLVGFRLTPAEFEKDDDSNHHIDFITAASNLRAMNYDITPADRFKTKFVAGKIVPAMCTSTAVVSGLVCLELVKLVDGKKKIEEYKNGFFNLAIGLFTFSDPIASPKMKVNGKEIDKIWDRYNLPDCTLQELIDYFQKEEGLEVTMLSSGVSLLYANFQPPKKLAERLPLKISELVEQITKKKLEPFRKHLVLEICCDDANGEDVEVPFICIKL

B1: Ubc15 L67F (enzyme)
chain: MPSSASEQLLRKQLKEIQKNPPQGFSVGLVDDKSIFEWEVMIIGPEDTLYEGGFFHATLSFPQDYPFMPPKMKFTTEIWHPNVHPNGEVCISILHPPGDDKYGYEDAGERWLPVHSPETILISVISMLSSPNDESPANIDAAKEFRENPQEFKKRVRRLVRRSIEMI
Molecule B1 displayed a fold decrease in E1-E2 Ub thioester transfer assay (Figure 2E) of 2 fold.
